Data published in patent US12679878B2, “CRF2 receptor agonists and their use in therapy” (SANOFI, priority 2020, dated 2026).
Starred links: 1 amine or outer side, 2 acyl side, 3 side chain; linkers in the order of their positions; H or OH if unused. Non-standard residues stand in square brackets, D forms with d. Groups on a side chain read outwards from the residue. No end group written: not given here. *: point of attachment. C18 diacid = O=C(O)CCCCCCCCCCCCCCCCC(=O)*; γGlu = O=C(O)[C@H](CCC(=O)[*:2])N[*:1]; Palmitoyl = CCCCCCCCCCCCCCCC(=O)*; AEEA = NCCOCCOCC(=O)O

B1: SEQ ID NO: 33 (peptide)
peptide: IVLSLD[dV]PTKLK([γGlu-Palmitoyl])QKLLKQERQRKEREQAEKNTRILERV-NH2
modifications: N-terminus assumed
SMILES: CCCCCCCCCCCCCCCC(=O)N[C@@H](CCC(=O)NCCCC[C@H](NC(=O)[C@H](CC(C)C)NC(=O)[C@H](CCCCN)NC(=O)[C@@H](NC(=O)[C@@H]1CCCN1C(=O)[C@H](NC(=O)[C@H](CC(=O)O)NC(=O)[C@H](CC(C)C)NC(=O)[C@H](CO)NC(=O)[C@H](CC(C)C)NC(=O)[C@@H](NC(=O)[C@@H](N)[C@@H](C)CC)C(C)C)C(C)C)[C@@H](C)O)C(=O)N[C@@H](CCC(N)=O)C(=O)N[C@@H](CCCCN)C(=O)N[C@@H](CC(C)C)C(=O)N[C@@H](CC(C)C)C(=O)N[C@@H](CCCCN)C(=O)N[C@@H](CCC(N)=O)C(=O)N[C@@H](CCC(=O)O)C(=O)N[C@@H](CCCNC(=N)N)C(=O)N[C@@H](CCC(N)=O)C(=O)N[C@@H](CCCNC(=N)N)C(=O)N[C@@H](CCCCN)C(=O)N[C@@H](CCC(=O)O)C(=O)N[C@@H](CCCNC(=N)N)C(=O)N[C@@H](CCC(=O)O)C(=O)N[C@@H](CCC(N)=O)C(=O)N[C@@H](C)C(=O)N[C@@H](CCC(=O)O)C(=O)N[C@@H](CCCCN)C(=O)N[C@@H](CC(N)=O)C(=O)N[C@H](C(=O)N[C@@H](CCCNC(=N)N)C(=O)N[C@H](C(=O)N[C@@H](CC(C)C)C(=O)N[C@@H](CCC(=O)O)C(=O)N[C@@H](CCCNC(=N)N)C(=O)N[C@H](C(N)=O)C(C)C)[C@@H](C)CC)[C@@H](C)O)C(=O)O
B2: SEQ ID NO: 34 (peptide)
peptide: FTLSLDVPTKIK([AEEA-AEEA-γGlu-C18 diacid])QKLLKQEKQKKQRQKAKTNKQILEQV-NH2
modifications: N-terminus assumed
SMILES: CC[C@H](C)[C@H](NC(=O)[C@H](CCC(N)=O)NC(=O)[C@H](CCCCN)NC(=O)[C@H](CC(N)=O)NC(=O)[C@@H](NC(=O)[C@H](CCCCN)NC(=O)[C@H](C)NC(=O)[C@H](CCCCN)NC(=O)[C@H](CCC(N)=O)NC(=O)[C@H](CCCNC(=N)N)NC(=O)[C@H](CCC(N)=O)NC(=O)[C@H](CCCCN)NC(=O)[C@H](CCCCN)NC(=O)[C@H](CCC(N)=O)NC(=O)[C@H](CCCCN)NC(=O)[C@H](CCC(=O)O)NC(=O)[C@H](CCC(N)=O)NC(=O)[C@H](CCCCN)NC(=O)[C@H](CC(C)C)NC(=O)[C@H](CC(C)C)NC(=O)[C@H](CCCCN)NC(=O)[C@H](CCC(N)=O)NC(=O)[C@H](CCCCNC(=O)COCCOCCNC(=O)COCCOCCNC(=O)CC[C@H](NC(=O)CCCCCCCCCCCCCCCCC(=O)O)C(=O)O)NC(=O)[C@@H](NC(=O)[C@H](CCCCN)NC(=O)[C@@H](NC(=O)[C@@H]1CCCN1C(=O)[C@@H](NC(=O)[C@H](CC(=O)O)NC(=O)[C@H](CC(C)C)NC(=O)[C@H](CO)NC(=O)[C@H](CC(C)C)NC(=O)[C@@H](NC(=O)[C@@H](N)Cc1ccccc1)[C@@H](C)O)C(C)C)[C@@H](C)O)[C@@H](C)CC)[C@@H](C)O)C(=O)N[C@@H](CC(C)C)C(=O)N[C@@H](CCC(=O)O)C(=O)N[C@@H](CCC(N)=O)C(=O)N[C@H](C(N)=O)C(C)C

Molecular target: human corticotropin-releasing factor 2α (CRF2 α receptor) (human), Q13324
Test: cell-based or functional assay

Chain of human corticotropin-releasing factor 2α (CRF2 α receptor) (human), Q13324 (Q13324 20-411): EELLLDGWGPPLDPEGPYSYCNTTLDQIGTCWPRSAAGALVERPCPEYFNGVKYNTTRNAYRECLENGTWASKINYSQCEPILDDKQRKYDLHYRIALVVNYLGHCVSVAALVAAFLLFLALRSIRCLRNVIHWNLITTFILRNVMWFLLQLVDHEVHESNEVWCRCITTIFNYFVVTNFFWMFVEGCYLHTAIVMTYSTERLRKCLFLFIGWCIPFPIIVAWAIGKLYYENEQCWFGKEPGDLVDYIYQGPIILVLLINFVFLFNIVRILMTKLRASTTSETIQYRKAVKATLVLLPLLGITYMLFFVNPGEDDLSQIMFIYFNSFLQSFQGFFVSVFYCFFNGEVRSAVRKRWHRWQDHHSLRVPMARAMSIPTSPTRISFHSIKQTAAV

Row | Binder | EC50 [nM], 0% HSA
1 | B1 | 0.2 nM
2 | B2 | 6.88 nM
